Assay results as given in patent publication US20240182536A1 (MURAL ONCOLOGY, published 2024).

T1: IL-18 receptor (IL-18Rα and IL-18Rβ) (UniProt Q13478 19-541; O95256 20-599, limits assumed)
T1 sequence (looked up) 1: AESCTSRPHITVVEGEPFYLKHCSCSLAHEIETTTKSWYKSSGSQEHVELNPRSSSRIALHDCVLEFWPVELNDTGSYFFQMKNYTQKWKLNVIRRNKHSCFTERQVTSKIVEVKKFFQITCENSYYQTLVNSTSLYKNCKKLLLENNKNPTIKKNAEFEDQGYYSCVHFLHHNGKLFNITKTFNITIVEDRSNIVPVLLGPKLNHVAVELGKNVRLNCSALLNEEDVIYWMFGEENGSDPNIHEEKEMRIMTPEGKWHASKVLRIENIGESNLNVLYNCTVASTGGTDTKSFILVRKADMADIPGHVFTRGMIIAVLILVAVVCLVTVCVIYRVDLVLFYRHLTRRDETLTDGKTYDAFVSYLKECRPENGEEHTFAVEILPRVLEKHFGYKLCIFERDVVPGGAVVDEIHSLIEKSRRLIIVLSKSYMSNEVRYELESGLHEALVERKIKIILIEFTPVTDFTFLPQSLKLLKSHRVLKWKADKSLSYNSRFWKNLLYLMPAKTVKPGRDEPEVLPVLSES
T1 sequence (looked up) 2: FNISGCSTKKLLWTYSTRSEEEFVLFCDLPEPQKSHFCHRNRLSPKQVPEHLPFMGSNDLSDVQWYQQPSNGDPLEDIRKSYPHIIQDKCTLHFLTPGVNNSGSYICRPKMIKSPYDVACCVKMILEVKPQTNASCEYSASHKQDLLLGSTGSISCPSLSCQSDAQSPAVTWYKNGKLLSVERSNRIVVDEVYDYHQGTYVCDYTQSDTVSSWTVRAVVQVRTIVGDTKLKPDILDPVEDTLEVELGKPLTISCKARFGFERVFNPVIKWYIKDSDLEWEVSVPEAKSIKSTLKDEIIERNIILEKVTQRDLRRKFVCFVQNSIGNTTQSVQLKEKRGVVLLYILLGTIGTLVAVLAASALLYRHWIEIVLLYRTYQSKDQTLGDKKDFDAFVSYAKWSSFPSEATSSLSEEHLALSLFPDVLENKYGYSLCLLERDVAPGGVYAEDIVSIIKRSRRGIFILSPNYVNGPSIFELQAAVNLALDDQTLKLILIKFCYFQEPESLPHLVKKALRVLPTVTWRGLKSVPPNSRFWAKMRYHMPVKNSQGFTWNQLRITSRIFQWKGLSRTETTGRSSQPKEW

T2: IL-18 receptors on HEK-Blue IL-18 reporter cells (UniProt Q13478 19-541; O95256 20-599, limits assumed)
T2 sequence (looked up) 1: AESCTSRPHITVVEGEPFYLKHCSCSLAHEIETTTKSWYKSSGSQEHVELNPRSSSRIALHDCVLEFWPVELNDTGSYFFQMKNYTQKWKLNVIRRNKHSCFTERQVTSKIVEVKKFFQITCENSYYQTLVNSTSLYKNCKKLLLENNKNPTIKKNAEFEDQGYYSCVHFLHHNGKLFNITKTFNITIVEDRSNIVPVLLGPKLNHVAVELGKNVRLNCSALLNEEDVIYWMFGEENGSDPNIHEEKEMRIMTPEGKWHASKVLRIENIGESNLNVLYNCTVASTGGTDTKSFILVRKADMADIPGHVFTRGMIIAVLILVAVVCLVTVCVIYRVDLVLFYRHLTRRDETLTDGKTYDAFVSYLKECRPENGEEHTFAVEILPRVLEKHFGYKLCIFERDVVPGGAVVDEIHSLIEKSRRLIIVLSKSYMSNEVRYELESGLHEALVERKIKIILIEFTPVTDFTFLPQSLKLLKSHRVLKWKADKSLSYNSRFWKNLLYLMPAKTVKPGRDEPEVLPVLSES
T2 sequence (looked up) 2: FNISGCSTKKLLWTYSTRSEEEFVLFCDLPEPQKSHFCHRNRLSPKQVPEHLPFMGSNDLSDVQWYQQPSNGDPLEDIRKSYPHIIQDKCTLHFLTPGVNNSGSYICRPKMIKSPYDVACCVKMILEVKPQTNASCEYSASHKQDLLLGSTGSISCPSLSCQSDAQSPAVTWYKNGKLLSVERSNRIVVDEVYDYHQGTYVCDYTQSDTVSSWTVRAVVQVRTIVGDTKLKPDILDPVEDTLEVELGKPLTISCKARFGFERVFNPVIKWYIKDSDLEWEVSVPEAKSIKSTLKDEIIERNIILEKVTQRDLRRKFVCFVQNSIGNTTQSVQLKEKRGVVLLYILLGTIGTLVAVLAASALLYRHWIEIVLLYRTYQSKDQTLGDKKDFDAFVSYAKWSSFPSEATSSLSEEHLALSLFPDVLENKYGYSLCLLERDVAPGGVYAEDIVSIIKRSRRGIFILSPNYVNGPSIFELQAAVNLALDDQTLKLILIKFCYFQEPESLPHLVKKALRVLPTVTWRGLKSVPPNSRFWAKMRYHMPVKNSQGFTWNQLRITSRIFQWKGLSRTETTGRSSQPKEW

T3: human IL-18 binding protein (human, UniProt O95998 31-194)
T3 sequence (looked up): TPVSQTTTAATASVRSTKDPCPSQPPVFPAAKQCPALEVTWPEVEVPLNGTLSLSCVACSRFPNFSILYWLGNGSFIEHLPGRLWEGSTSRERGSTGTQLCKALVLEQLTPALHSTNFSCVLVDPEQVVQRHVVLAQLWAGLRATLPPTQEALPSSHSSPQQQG


What was measured:
Experiment in all cases: cell-based or functional assay
[1] = target: T1, IL-18 receptor (IL-18Rα and IL-18Rβ)
[2] = target: T2, IL-18 receptors on HEK-Blue IL-18 …
[3] = target: T3, human IL-18 binding protein

Row | Binder | EC50 (pM), PBMC IFN gamma assay, average [1] | EC50 (pM), PBMC IFN gamma assay, run 1 [1] | EC50 (pM), PBMC IFN gamma assay, run 2 [1] | EC50 (pM), PBMC IFN gamma assay, run 3 [1] | PBMC IFN gamma EC50 relative to WT-IL18, average [1] | PBMC IFN gamma EC50 relative to WT-IL18, run 1 [1] | PBMC IFN gamma EC50 relative to WT-IL18, run 2 [1] | PBMC IFN gamma EC50 relative to WT-IL18, run 3 [1] | HEK-Blue activity, No BP, DF-10000 [2] | HEK-Blue activity, No BP, DF-100,000 [2] | HEK-Blue activity, No BP, DF-1,000,000 [2] | HEK-Blue activity, +100 nM BP, DF-10000 [3] | HEK-Blue activity, +100 nM BP, DF-100,000 [3] | HEK-Blue activity, +100 nM BP, DF-1,000,000 [3] | Ratio (-BP/+BP), DF-10000 [3] | Ratio (-BP/+BP), DF-100,000 [3] | Ratio (-BP/+BP), DF-1,000,000 [3]
1 | hIL18 (G3V, E6K, K53A, M60K)- KiH (Fc fusion) YFVKLKSKLSVIRNLNDQVLFIDQGNRPLFEDMTDSDMRDNAPRTIFIISMYADSQPRGKAVTISVKSEKISTLSSENKIISFKEMNPPDNIKDTKSDIIFFQRSVPGHDNKMQFESSSYEGYFLASEKERDLFKLILKKEDELGDRSIMFTVQNED | 5.46 pM | 8.83 pM | 3.21 pM | 4.33 pM | 0.03 | 0.04 | 0.03 | 0.03 | – | – | – | – | – | – | – | – | –
2 | yeast display IL-18 variant K53Y, S55G (ligand) YFGKLESKLSVIRNLNDQVLFIDQGNRPLFEDMTDSDMRDNAPRTIFIISMYYDGQPRGMAVTISVKSEKISTLSSENKIISFKEMNPPDNIKDTKSDIIFFQRSVPGHDNKMQFESSSYEGYFLASEKERDLFKLILKKEDELGDRSIMFTVQNED | – | – | – | – | – | – | – | – | 0.36 | 0.14 | 0.12 | 0.21 | 0.16 | 0.13 | 1.71 | 0.88 | 0.94
3 | yeast display IL-18 variant K53S, S55F, R104K, H109Y (ligand) YFGKLESKLSVIRNLNDQVLFIDQGNRPLFEDMTDSDMRDNAPRTIFIISMYSDFQPRGMAVTISVKSEKISTLSSENKIISFKEMNPPDNIKDTKSDIIFFQKSVPGYDNKMQFESSSYEGYFLASEKERDLFKLILKKEDELGDRSIMFTVQNED | – | – | – | – | – | – | – | – | 0.43 | 0.11 | 0.09 | 0.14 | 0.09 | 0.09 | 3.08 | 1.18 | 0.95
4 | hIL18 (G3T, K53S, M60K) - KiH (Fc fusion) YFTKLESKLSVIRNLNDQVLFIDQGNRPLFEDMTDSDMRDNAPRTIFIISMYSDSQPRGKAVTISVKSEKISTLSSENKIISFKEMNPPDNIKDTKSDIIFFQRSVPGHDNKMQFESSSYEGYFLASEKERDLFKLILKKEDELGDRSIMFTVQNED | 906 pM | 810 pM | 1120 pM | 784 pM | 6.3 | 3.36 | 10.7 | 4.85 | – | – | – | – | – | – | – | – | –
5 | hIL18 (G3T, K53A, M60K) - KiH (Fc fusion) YFTKLESKLSVIRNLNDQVLFIDQGNRPLFEDMTDSDMRDNAPRTIFIISMYADSQPRGKAVTISVKSEKISTLSSENKIISFKEMNPPDNIKDTKSDIIFFQRSVPGHDNKMQFESSSYEGYFLASEKERDLFKLILKKEDELGDRSIMFTVQNED | 195 pM | 209 pM | 214 pM | 162 pM | 1.3 | 0.87 | 2.04 | 1 | – | – | – | – | – | – | – | – | –
